Measurements published in patent publication US20200223889A1 (Novo Nordisk, published 2020).
Positions of bridges follow the written chain, without caps; N, C: chain ends. Non-standard residues stand in square brackets, D forms with d. Pro(cis-4-guanidino) = NC(N)=N[C@@H]1CN[C@H](C(=O)O)C1; Lys(Me2) = CN(C)CCCC[C@H](N)C(=O)O; Hyp = O=C(O)[C@@H]1C[C@@H](O)CN1; Dab = NCC[C@H](N)C(=O)O

Columns and labels:
[1] = target: T1, human melanocortin 4 receptor (human, UniProt P32245 1-332); test: competition with 125-NDP-α-MSH, BHK human MC4R membranes
T1 construct: whole, on cells; cAMP assay on whole BHK cells; also called MC4R; human MC4 receptor
Outline: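 Competition binding used membranes from BHK cells stably expressing human MC4R with ¹²⁵I-NDP-α-MSH (apx. […] final), compound at 1 μM–0.001 nM. Incubation was 2 h at 25 °C in HEPES pH 7.0 buffer with CaCl₂, MgSO₄, EGTA, Tween 20 and 0.1% HSA or ovalbumin. Filter-bound radioactivity was fitted by non-linear regression.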

[2] = target: human melanocortin 1 receptor (human, UniProt Q01726 1-317); test: cell-based or functional assay
[3] = target: T1, human melanocortin 4 receptor; test: cell-based or functional assay

Chain of human melanocortin 1 receptor (Q01726 whole entry): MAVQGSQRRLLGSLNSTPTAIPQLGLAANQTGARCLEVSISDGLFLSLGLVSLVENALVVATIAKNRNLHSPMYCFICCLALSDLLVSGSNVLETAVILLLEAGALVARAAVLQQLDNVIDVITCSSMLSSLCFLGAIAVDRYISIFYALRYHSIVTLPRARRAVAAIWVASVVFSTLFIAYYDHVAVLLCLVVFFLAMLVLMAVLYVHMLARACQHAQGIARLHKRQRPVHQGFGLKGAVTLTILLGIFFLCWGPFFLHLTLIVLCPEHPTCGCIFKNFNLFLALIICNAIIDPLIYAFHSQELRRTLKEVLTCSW
T1 sequence (P32245 whole entry): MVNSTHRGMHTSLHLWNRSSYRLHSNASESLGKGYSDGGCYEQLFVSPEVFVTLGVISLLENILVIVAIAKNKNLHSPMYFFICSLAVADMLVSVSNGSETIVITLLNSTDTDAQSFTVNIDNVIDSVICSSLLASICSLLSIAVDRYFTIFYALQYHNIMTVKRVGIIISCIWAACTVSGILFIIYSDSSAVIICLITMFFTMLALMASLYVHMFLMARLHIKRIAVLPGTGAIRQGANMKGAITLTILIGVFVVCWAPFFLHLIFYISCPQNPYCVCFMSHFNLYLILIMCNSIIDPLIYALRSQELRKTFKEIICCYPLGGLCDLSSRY

Binder | Ki [1] [nM] | MC1R cAMP EC50 [2] [nM] | MC4R cAMP EC50 [3] [nM]
CXHFRWCXHFRW (βAla 2, 8; D-Phe 4, 10; disulphide Cys1-Cys7; head-to-tail amide Cys1-Trp12, also called c[c[Cys-βAla-His-D-Phe-Arg-Trp-Cys]-βAla-His-D-Phe-Arg-Trp]) [Chem. 25] | 0.04 | 0.34 | 0.02
cyclo(CAH[dF][Lys(Me2)]WCAH[dF][Lys(Me2)]W) (disulfide 1-7; SMILES C[C@@H]1NC(=O)[C@@H]2CSSC[C@H](NC(=O)[C@H](Cc3c[nH]c4ccccc34)NC(=O)[C@H](CCCCN(C)C)NC(=O)[C@@H](Cc3ccccc3)NC(=O)[C@H](Cc3c[nH]cn3)NC1=O)C(=O)N[C@@H](C)C(=O)N[C@@H](Cc1c[nH]cn1)C(=O)N[C@H](Cc1ccccc1)C(=O)N[C@@H](CCCCN(C)C)C(=O)N[C@@H](Cc1c[nH]c3ccccc13)C(=O)N2, also called c[c[Cys-Ala-His-D-Phe-Lys(Me)2-Trp-Cys]-Ala-His-D-Phe-Lys(Me)2-Trp]) [Chem. 18] | 0.38 | 4.22 | 0.12
cyclo(CAH[dF][Dab]WCAH[dF][Dab]W) (disulfide 1-7; SMILES C[C@@H]1NC(=O)[C@@H]2CSSC[C@H](NC(=O)[C@H](Cc3c[nH]c4ccccc34)NC(=O)[C@H](CCN)NC(=O)[C@@H](Cc3ccccc3)NC(=O)[C@H](Cc3c[nH]cn3)NC1=O)C(=O)N[C@@H](C)C(=O)N[C@@H](Cc1c[nH]cn1)C(=O)N[C@H](Cc1ccccc1)C(=O)N[C@@H](CCN)C(=O)N[C@@H](Cc1c[nH]c3ccccc13)C(=O)N2, also called c[c[Cys-Ala-His-D-Phe-Dab-Trp-Cys]-Ala-His-D-Phe-Dab-Trp]) [Chem. 17] | 0.83 | 104 | 0.36
cyclo(C[Hyp][dF]RWC[Hyp][dF]RW) (bridge 1-6 via methylene bridge (S-CH2-S), also called c[c[Cys-Hyp-D-Phe-Arg-Trp-Cys]-Hyp-D-Phe-Arg-Trp]; Note: methylene bridge) [Chem. 26] | 0.44 | 17.2 | 0.18
CAHFXWCAHFXW (D-Phe 4, 10; Cit 5, 11; disulphide Cys1-Cys7; head-to-tail amide Cys1-Trp12, also called c[c[Cys-Ala-His-D-Phe-Cit-Trp-Cys]-Ala-His-D-Phe-Cit-Trp]) [Chem. 19] | 1.49 | > 1 | 0.13
CAHFXWCAHFXW (D-Phe 4, 10; HArg 5, 11; disulphide Cys1-Cys7; head-to-tail amide Cys1-Trp12, also called c[c[Cys-Ala-His-D-Phe-HArg-Trp-Cys]-Ala-His-D-Phe-HArg-Trp]) [Chem. 22] | 0.06 | 0.22 | 0.02
cyclo(C[Hyp]H[dF]RWC[Hyp]H[dF]RW) (disulfide 1-7; SMILES N=C(N)NCCC[C@@H]1NC(=O)[C@@H](Cc2ccccc2)NC(=O)[C@H](Cc2c[nH]cn2)NC(=O)[C@@H]2C[C@@H](O)CN2C(=O)[C@@H]2CSSC[C@H](NC(=O)[C@H](Cc3c[nH]c4ccccc34)NC1=O)C(=O)N1C[C@H](O)C[C@H]1C(=O)N[C@@H](Cc1c[nH]cn1)C(=O)N[C@H](Cc1ccccc1)C(=O)N[C@@H](CCCNC(=N)N)C(=O)N[C@@H](Cc1c[nH]c3ccccc13)C(=O)N2, also called c[c[Cys-Hyp-His-D-Phe-Arg-Trp-Cys]-Hyp-His-D-Phe-Arg-Trp]) [Chem. 32] | 0.37 | 1.98 | 0.12
cyclo(C[Hyp][dF]RWC[Hyp][dF]RW) (disulfide 1-6; SMILES N=C(N)NCCC[C@@H]1NC(=O)[C@@H](Cc2ccccc2)NC(=O)[C@@H]2C[C@@H](O)CN2C(=O)[C@@H]2CSSC[C@H](NC(=O)[C@H](Cc3c[nH]c4ccccc34)NC1=O)C(=O)N1C[C@H](O)C[C@H]1C(=O)N[C@H](Cc1ccccc1)C(=O)N[C@@H](CCCNC(=N)N)C(=O)N[C@@H](Cc1c[nH]c3ccccc13)C(=O)N2, also called c[c[Cys-Hyp-D-Phe-Arg-Trp-Cys]-Hyp-D-Phe-Arg-Trp]) [Chem. 27] | 1.01 | 50.9 | 0.24
cyclo(CAH[dF][Pro(cis-4-guanidino)]WCAH[dF][Pro(cis-4-guanidino)]W) (disulfide 1-7; SMILES C[C@@H]1NC(=O)[C@@H]2CSSC[C@H](NC(=O)[C@H](Cc3c[nH]c4ccccc34)NC(=O)[C@@H]3C[C@H](N=C(N)N)CN3C(=O)[C@@H](Cc3ccccc3)NC(=O)[C@H](Cc3c[nH]cn3)NC1=O)C(=O)N[C@@H](C)C(=O)N[C@@H](Cc1c[nH]cn1)C(=O)N[C@H](Cc1ccccc1)C(=O)N1C[C@@H](N=C(N)N)C[C@H]1C(=O)N[C@@H](Cc1c[nH]c3ccccc13)C(=O)N2, also called c[c[Cys-Ala-His-D-Phe-4cis-GuaPro-Trp-Cys]-Ala-His-D-Phe-4cis-GuaPro-Trp]) [Chem. 29] | 1210 | > 100 | 1020
XAHFRWXAHFRW (HCys 1, 7; D-Phe 4, 10; disulphide HCys1-HCys7; head-to-tail amide HCys1-Trp12, also called c[c[HCys-Ala-His-D-Phe-Arg-Trp-HCys]-Ala-His-D-Phe-Arg-Trp]) [Chem. 3] | 0.42 | 7.29 | 0.26
